Test results: paper PMC6596994 (Nature, 2019)
Positions count from the first letter of the chain named. Numbers in names are those of the source. Where two headings read alike, the source gives them in different places.

T1: Human TBK1 (1–657, S172A) (human, UniProt Q9UHD2 1-657, S172A)
T1 sequence: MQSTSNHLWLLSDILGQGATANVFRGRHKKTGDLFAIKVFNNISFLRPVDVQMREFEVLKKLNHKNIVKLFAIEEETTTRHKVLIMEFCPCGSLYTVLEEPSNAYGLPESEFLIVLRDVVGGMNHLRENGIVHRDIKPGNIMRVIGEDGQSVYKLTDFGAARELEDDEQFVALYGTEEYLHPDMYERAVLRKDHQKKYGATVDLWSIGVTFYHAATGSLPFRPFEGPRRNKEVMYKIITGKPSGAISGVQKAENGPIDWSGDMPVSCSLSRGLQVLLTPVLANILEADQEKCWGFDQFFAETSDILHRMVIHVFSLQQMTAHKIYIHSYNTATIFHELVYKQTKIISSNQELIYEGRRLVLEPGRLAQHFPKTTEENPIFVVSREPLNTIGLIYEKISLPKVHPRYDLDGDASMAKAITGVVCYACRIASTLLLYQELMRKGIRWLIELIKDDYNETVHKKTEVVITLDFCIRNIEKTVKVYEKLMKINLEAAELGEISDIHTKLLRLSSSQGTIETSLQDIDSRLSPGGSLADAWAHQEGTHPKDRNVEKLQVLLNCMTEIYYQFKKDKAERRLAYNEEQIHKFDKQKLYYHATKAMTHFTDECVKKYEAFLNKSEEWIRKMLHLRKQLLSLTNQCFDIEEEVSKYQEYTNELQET

T2: Mouse TBK1 (1–657, S172A) (mouse, UniProt Q9WUN2 1-657, S172A)
T2 sequence: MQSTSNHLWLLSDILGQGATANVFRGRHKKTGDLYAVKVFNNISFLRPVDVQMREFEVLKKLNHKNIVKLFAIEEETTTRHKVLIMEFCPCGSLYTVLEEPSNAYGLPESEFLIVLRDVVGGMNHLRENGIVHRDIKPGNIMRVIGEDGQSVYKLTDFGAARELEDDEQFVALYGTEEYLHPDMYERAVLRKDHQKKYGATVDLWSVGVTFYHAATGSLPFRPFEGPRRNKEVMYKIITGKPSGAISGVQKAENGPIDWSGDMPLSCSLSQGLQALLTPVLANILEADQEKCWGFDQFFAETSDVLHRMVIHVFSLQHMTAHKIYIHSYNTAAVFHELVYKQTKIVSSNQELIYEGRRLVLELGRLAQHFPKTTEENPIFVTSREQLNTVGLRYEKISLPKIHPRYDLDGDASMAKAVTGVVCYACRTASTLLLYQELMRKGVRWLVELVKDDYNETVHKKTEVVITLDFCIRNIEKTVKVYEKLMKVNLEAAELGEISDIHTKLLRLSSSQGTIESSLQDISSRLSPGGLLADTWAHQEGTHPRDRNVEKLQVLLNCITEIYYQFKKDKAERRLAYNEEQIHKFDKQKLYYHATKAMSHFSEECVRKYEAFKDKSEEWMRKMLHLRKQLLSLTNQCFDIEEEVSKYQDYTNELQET

T3: Mouse TBK1 (1–657) (mouse, UniProt Q9WUN2 1-657)
T3 sequence: T2 sequence with A172S

T4: Human TBK1 (residue 1–657, S172E, D135N) (human, UniProt Q9UHD2 1-657, S172E | D135N)
T4 sequence: T1 sequence with D135N, A172E

B1: p-hSTING (155–379) (domain or fragment)
chain: VAHGLAWSYYIGYLRLILPELQARIRTYNQHYNNLLRGAVSQRLYILLPLDCGVPDNLSMADPNIRFLDKLPQQTGDHAGIKDRVYSNSIYELLENGQRAGTCVLEYATPLQTLFAMSQYSQAGFSREDRLEQAKLFCRTLEDILADAPESQNNCRLIAYQEPADDSSFSLSQEVLRHLRQEEKEEVTVGSLKTSAVPSTSTMSQEPELLISGMEKPLPLRTDFS
B2: human STING CTD (residues 155 to 379, T376E, F378M, S379W), crystallised (domain or fragment)
chain: B1 chain with T222E, F224M, S225W

Columns and labels:
[1] = target: T1, Human TBK1 (1–657, S172A); assay: SPR
[2] = target: T2, Mouse TBK1 (1–657, S172A); assay: SPR
Mouse TBK1 (1–657) = target: T3, Mouse TBK1 (1–657); assay: SPR
[3] = target: T1, Human TBK1 (1–657, S172A); assay: SPR; remark: listed apart in the source
[4] = target: T2, Mouse TBK1 (1–657, S172A); assay: SPR; remark: listed apart in the source
[5] = target: T4, Human TBK1 (residue 1–657, S172E, D135N); assay: crystal structure

Binder | Kd [1] [µM] | Kd [2] [µM] | Kd (Mouse TBK1 (1–657)) [µM] | Kd [3] [µM] | Kd [4] [µM] | binding result [5]
B1 | 11 | 9.1 | 13.3 | 20 | 12.5 | –
B2 | – | – | – | – | – | binds
